Positions count from the first letter of the chain named. Values belong to the binder of their own block, whether it stands above or below them.
Molecular target: T1, soluble human GPC3 (human, UniProt P51654 25-563, limits assumed)
T1 construct: soluble human GPC3 as analyte; also called glypican 3
Experiment: SPR (Biacore), soluble human GPC3

T1 sequence (P51654 other isoform, or with tags, fused parts or gaps limits assumed, form in doubt): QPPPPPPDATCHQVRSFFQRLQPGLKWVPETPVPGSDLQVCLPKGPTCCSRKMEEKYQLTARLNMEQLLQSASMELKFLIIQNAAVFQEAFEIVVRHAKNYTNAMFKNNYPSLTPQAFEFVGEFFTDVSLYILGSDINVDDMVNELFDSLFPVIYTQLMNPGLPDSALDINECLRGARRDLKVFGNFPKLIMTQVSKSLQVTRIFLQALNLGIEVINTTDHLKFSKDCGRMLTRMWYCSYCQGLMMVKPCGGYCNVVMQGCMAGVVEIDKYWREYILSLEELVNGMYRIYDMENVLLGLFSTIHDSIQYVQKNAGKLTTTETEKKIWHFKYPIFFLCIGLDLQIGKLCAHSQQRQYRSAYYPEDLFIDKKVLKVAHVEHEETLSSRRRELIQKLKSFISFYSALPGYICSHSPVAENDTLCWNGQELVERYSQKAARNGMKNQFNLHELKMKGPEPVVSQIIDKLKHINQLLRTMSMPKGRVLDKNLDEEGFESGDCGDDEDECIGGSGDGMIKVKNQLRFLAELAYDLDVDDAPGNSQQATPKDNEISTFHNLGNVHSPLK

Kd: 2.78 nM
B1: GCH099-G1dh/none-Hi-Kn010G3/L0011-k0 (antibody, human IgG1, kappa)
heavy: not shown
chain: EPKSSDKTHTCPPCPAPELLGGPSVFLFPPKPKDTLMISRTPEVTCVVVDVSHEDPEVKFNWYVDGVEVHNAKTKPREEQYNSTYRVVSVLTVLHQDWLNGKEYKCKVSNKALPAPIEKTISKAKGQPREPQVCTLPPSRDELTKNQVSLWCLVKGFYPSDIAVEWESNGQPENNYKTTPPVLDSDGSFFLYSKLTVDKSRWQQGNVFSCSVMHEALHNRYTQKSLSLSP
light: DIVMTQSPLSLPVTPGEPASISCRSSQPLVHSNRNTYLHWYQQKPGQAPRLLIYKVSNRFSGVPDRFSGSGSGTDFTLKISRVEAEDVGVYYCGQGTQVPYTFGQGTKLEIKRTVAAPSVFIFPPSDEQLKSGTASVVCLLNNFYPREAKVQWKVDNALQSGNSQESVTEQDSKDSTYSLSSTLTLSKADYEKHKVYACEVTHQGLSSPVTKSFNRGEC
notes: single-arm (one Fab)

Kd: 1.82 nM
B2: H0610-G1dh/none-Hi-Kn010G3/L0014-k0 (antibody, human IgG1, kappa)
heavy: not shown
chain: B1 chain
light: B1 light with P28S, L29M
notes: single-arm (one Fab)

Kd: 1.29 nM
B3: GCH099-G1dh/none-Hi-Kn010G3/L0201-k0 (antibody, human IgG1, kappa)
heavy: not shown
chain: B1 chain
light: B1 light with L29P
notes: single-arm (one Fab)

Kd: 4.43 nM
B4: H0610-G1dh/none-Hi-Kn010G3/L0002-k0 (antibody, human IgG1, kappa)
heavy: not shown
chain: B1 chain
light: B1 light with S25A, P28S
notes: single-arm (one Fab)

Kd: 4.85 nM
B5: H0610-G1dh/none-Hi-Kn010G3/L0041-k0 (antibody, human IgG1, kappa)
heavy: not shown
chain: B1 chain
light: B1 light with P28S, S32L
notes: single-arm (one Fab)

Kd: 3.28 nM
B6: H0610-G1dh/none-Hi-Kn010G3/L0148-k0 (antibody, human IgG1, kappa)
heavy: not shown
chain: B1 chain
light: B1 light with P28S, S61W
notes: single-arm (one Fab)

Kd: 2.75 nM
B7: H0610-G1dh/none-Hi-Kn010G3/L0038-k0 (antibody, human IgG1, kappa)
heavy: not shown
chain: B1 chain
light: B1 light with P28S, S32F
notes: single-arm (one Fab)

Kd: 4.57 nM
B8: H0610-G1dh/none-Hi-Kn010G3/L0044-k0 (antibody, human IgG1, kappa)
heavy: not shown
chain: B1 chain
light: B1 light with P28S, S32P
notes: single-arm (one Fab)

Kd: 1.12 nM
B9: H0610-G1dh/none-Hi-Kn010G3/L0090-k0 (antibody, human IgG1, kappa)
heavy: not shown
chain: B1 chain
light: B1 light with P28S, H39M
notes: single-arm (one Fab)

Kd: 4.01 nM
B10: H0610-G1dh/none-Hi-Kn010G3/L0003-k0 (antibody, human IgG1, kappa)
heavy: not shown
chain: B1 chain
light: B1 light with S25I, P28S
notes: single-arm (one Fab)

Kd: 4.2 nM
B11: H0610-G1dh/none-Hi-Kn010G3/L0066-k0 (antibody, human IgG1, kappa)
heavy: not shown
chain: B1 chain
light: B1 light with P28S, N35H
notes: single-arm (one Fab)

Kd: 2.66 nM
B12: H0610-G1dh/none-Hi-Kn010G3/L0145-k0 (antibody, human IgG1, kappa)
heavy: not shown
chain: B1 chain
light: B1 light with P28S, S61R
notes: single-arm (one Fab)

Kd: 1.37 nM
B13: GCH100-G1dh/none-Hi-Kn010G3/L0201-k0 (antibody, human IgG1, kappa)
heavy: not shown
chain: B1 chain
light: B1 light with L29P
notes: single-arm (one Fab)

Kd: 4.23 nM
B14: H0610-G1dh/none-Hi-Kn010G3/L0079-k0 (antibody, human IgG1, kappa)
heavy: not shown
chain: B1 chain
light: B1 light with P28S, L38I
notes: single-arm (one Fab)

Kd: 1.55 nM
B15: H0610-G1dh/none-Hi-Kn010G3/L0012-k0 (antibody, human IgG1, kappa)
heavy: not shown
chain: B1 chain
light: B1 light with P28S, L29F
notes: single-arm (one Fab)

Kd: 4.39 nM
B16: H0610-G1dh/none-Hi-Kn010G3/L0007-k0 (antibody, human IgG1, kappa)
heavy: not shown
chain: B1 chain
light: B1 light with S25T, P28S
notes: single-arm (one Fab)

Kd: 3.43 nM
B17: H0610-G1dh/none-Hi-Kn010G3/L0082-k0 (antibody, human IgG1, kappa)
heavy: not shown
chain: B1 chain
light: B1 light with P28S, L38V
notes: single-arm (one Fab)

Kd: 4.34 nM
B18: H0610-G1dh/none-Hi-Kn010G3/L0115-k0 (antibody, human IgG1, kappa)
heavy: not shown
chain: B1 chain
light: B1 light with P28S, N58W
notes: single-arm (one Fab)

Kd: 2.42 nM
B19: H0610-G1dh/none-Hi-Kn010G3/L0122-k0 (antibody, human IgG1, kappa)
heavy: not shown
chain: B1 chain
light: B1 light with P28S, F60I
notes: single-arm (one Fab)

Kd: 0.573 nM
B20: H0610-G1dh/none-Hi-Kn010G3/L0143-k0 (antibody, human IgG1, kappa)
heavy: not shown
chain: B1 chain
light: B1 light with P28S, S61P
notes: single-arm (one Fab)

Kd: 1.17 nM
B21: H0610-G1dh/none-Hi-Kn010G3/L0085-k0 (antibody, human IgG1, kappa)
heavy: not shown
chain: B1 chain
light: B1 light with P28S, H39E
notes: single-arm (one Fab)

Kd: 4.66 nM
B22: H0610-G1dh/none-Hi-Kn010G3/L0045-k0 (antibody, human IgG1, kappa)
heavy: not shown
chain: B1 chain
light: B1 light with P28S, S32Q
notes: single-arm (one Fab)

Kd: 2.16 nM
B23: H0610-G1dh/none-Hi-Kn010G3/L0149-k0 (antibody, human IgG1, kappa)
heavy: not shown
chain: B1 chain
light: B1 light with P28S, G94A
notes: single-arm (one Fab)

Kd: 3.3 nM
B24: H0610-G1dh/none-Hi-Kn010G3/L0008-k0 (antibody, human IgG1, kappa)
heavy: not shown
chain: B1 chain
light: B1 light with S25V, P28S
notes: single-arm (one Fab)

Kd: 2.76 nM
B25: H0610-G1dh/none-Hi-Kn010G3/L0011-k0 (antibody, human IgG1, kappa)
heavy: not shown
chain: B1 chain
light: B1 light
notes: single-arm (one Fab)

Kd: 3.41 nM
B26: H0610-G1dh/none-Hi-Kn010G3/L0039-k0 (antibody, human IgG1, kappa)
heavy: not shown
chain: B1 chain
light: B1 light with P28S, S32H
notes: single-arm (one Fab)

Kd: 3.86 nM
B27: H0610-G1dh/none-Hi-Kn010G3/L0141-k0 (antibody, human IgG1, kappa)
heavy: not shown
chain: B1 chain
light: B1 light with P28S, S61M
notes: single-arm (one Fab)

Kd: 0.972 nM
B28: H0610-G1dh/none-Hi-Kn010G3/L0124-k0 (antibody, human IgG1, kappa)
heavy: not shown
chain: B1 chain
light: B1 light with P28S, F60L
notes: single-arm (one Fab)

Kd: 3.38 nM
B29: H0610-G1dh/none-Hi-Kn010G3/L0140-k0 (antibody, human IgG1, kappa)
heavy: not shown
chain: B1 chain
light: B1 light with P28S, S61L
notes: single-arm (one Fab)

Kd: 3.04 nM
B30: H0610-G1dh/none-Hi-Kn010G3/L0006-k0 (antibody, human IgG1, kappa)
heavy: not shown
chain: B1 chain
light: B1 light with S25P, P28S
notes: single-arm (one Fab)

Kd: 2.23 nM
B31: H0610-G1dh/none-Hi-Kn010G3/L0047-k0 (antibody, human IgG1, kappa)
heavy: not shown
chain: B1 chain
light: B1 light with P28S, S32W
notes: single-arm (one Fab)

Kd: 3.12 nM
B32: H0610-G1dh/none-Hi-Kn010G3/L0127-k0 (antibody, human IgG1, kappa)
heavy: not shown
chain: B1 chain
light: B1 light with P28S, F60P
notes: single-arm (one Fab)

Kd: 4.79 nM
B33: H0610-G1dh/none-Hi-Kn010G3/L0065-k0 (antibody, human IgG1, kappa)
heavy: not shown
chain: B1 chain
light: B1 light with P28S, N35G
notes: single-arm (one Fab)

Kd: 3.35 nM
B34: H0610-G1dh/none-Hi-Kn010G3/L0013-k0 (antibody, human IgG1, kappa)
heavy: not shown
chain: B1 chain
light: B1 light with P28S, L29I
notes: single-arm (one Fab)

Kd: 2.99 nM
B35: H0610-G1dh/none-Hi-Kn010G3/L0009-k0 (antibody, human IgG1, kappa)
heavy: not shown
chain: B1 chain
light: B1 light with S26P, P28S
notes: single-arm (one Fab)

Kd: 1.31 nM
B36: H0610-G1dh/none-Hi-Kn010G3/L0015-k0 (antibody, human IgG1, kappa)
heavy: not shown
chain: B1 chain
light: B1 light with P28S, L29P
notes: single-arm (one Fab)

Kd: 0.106 nM
B37: H0610-G1dh/none-Hi-Kn010G3/L0093-k0 (antibody, human IgG1, kappa)
heavy: not shown
chain: B1 chain
light: B1 light with P28S, H39Q
notes: single-arm (one Fab)

Kd: 4.44 nM
B38: H0610-G1dh/none-Hi-Kn010G3/L0016-k0 (antibody, human IgG1, kappa)
heavy: not shown
chain: B1 chain
light: B1 light with P28S, L29V
notes: single-arm (one Fab)

Kd: 3.81 nM
B39: GCH100-G1dh/none-Hi-Kn010G3/L0011-k0 (antibody, human IgG1, kappa)
heavy: not shown
chain: B1 chain
light: B1 light
notes: single-arm (one Fab)

Kd: 3.37 nM
B40: H0610-G1dh/none-Hi-Kn010G3/L0064-k0 (antibody, human IgG1, kappa)
heavy: not shown
chain: B1 chain
light: B1 light with P28S, N35F
notes: single-arm (one Fab)

Kd: 4.38 nM
B41: H0610-G1dh/none-Hi-Kn010G3/L0107-k0 (antibody, human IgG1, kappa)
heavy: not shown
chain: B1 chain
light: B1 light with P28S, N58I
notes: single-arm (one Fab)

Kd: 4.54 nM
B42: H0610-G1dh/none-Hi-Kn010G3/L0129-k0 (antibody, human IgG1, kappa)
heavy: not shown
chain: B1 chain
light: B1 light with P28S, F60R
notes: single-arm (one Fab)

Kd: 2.85 nM
B43: H0610-G1dh/none-Hi-Kn010G3/L0075-k0 (antibody, human IgG1, kappa)
heavy: not shown
chain: B1 chain
light: B1 light with P28S, N35W
notes: single-arm (one Fab)

Kd: 2.53 nM
B44: H0610-G1dh/none-Hi-Kn010G3/L0134-k0 (antibody, human IgG1, kappa)
heavy: not shown
chain: B1 chain
light: B1 light with P28S, F60Y
notes: single-arm (one Fab)

Kd: 3.72 nM
B45: H0610-G1dh/none-Hi-Kn010G3/L0032-k0 (antibody, human IgG1, kappa)
heavy: not shown
chain: B1 chain
light: B1 light with P28S, H31R
notes: single-arm (one Fab)

Kd: 1.71 nM
B46: H0610-G1dh/none-Hi-Kn010G3/L0125-k0 (antibody, human IgG1, kappa)
heavy: not shown
chain: B1 chain
light: B1 light with P28S, F60M
notes: single-arm (one Fab)

Kd: 4.27 nM
B47: H0610-G1dh/none-Hi-Kn010G3/L0042-k0 (antibody, human IgG1, kappa)
heavy: not shown
chain: B1 chain
light: B1 light with P28S, S32M
notes: single-arm (one Fab)

Source: US20210388110A1 (published 2021)
